Measurements taken from patent publication US7550427B2, “Poly-pegylated protease inhibitors” (Dyax Corp., priority 2003, dated 2009).
Like-named read-outs stand apart in the source and are kept apart here. Where no end group is shown, it is not given here.

How the values were obtained:
[1] = Plasma clearance in rabbit of 125I-labeled protein; conditions: for Clearance (%) alpha phase: fraction cleared through alpha phase; for Clearance (%) beta phase: fraction cleared through beta phase; for Clearance (%) gamma phase: fraction cleared through gamma phase; for T1/2 alpha / T1/2 beta / T1/2 gamma: plasma clearance, ear vein injection
Protocol: (§1) The following methods can be used to evaluate the pharmacokinetics (PK) of proteins such as poly-PEGylated proteins in animals, e.g., mice and rabbits. The protein to be tested is labeled with iodine (^125I) using the iodogen method (Pierce). The reaction tube is rinsed with reaction buffer (25 mM Tris, 0.4 M NaCl, pH 7.5). The tube is emptied and then replaced with 0.1 ml of reaction buffer and 12 μl of carrier free iodine-126, about 1.6 mCi. After six minutes, the activated iodine is transferred to a tube containing the protein to be tested. After nine minutes, the reaction is terminated with 25 μl of saturated tyrosine solution. The reaction can be purified on a 5 ml D-salt polyacrylamide 6000 column in Tris/NaCl. HSA can be used to minimize sticking to the gel.
(§2) For rabbits, the material is injected into the ear vein. Samples can be collected at 0, 7, 15, 30, 90 minutes, 4, 8, 16, 24, 48, 72, 96, 120, and 144 hours post-injection. Samples can be collected and analyzed as for mice.
(§3) Data can be fit to a bi-exponential (equation 2) or a tri-exponential (equation 3) decay curve describing “fast”, “slow”, and “slowest” phases of in vivo clearance: y=Ae^−αt+Be^−βt Equation 2 y=Ae^−αt+Be^−βt+Ce^−γt Equation 3 Where: • y=Amount of label remaining in plasma at time=t post-administration • A=Total label in “fast” clearance phase • B=Total label in “slow” clearance phase • C=Total label in “slowest” clearance phase • α=“Fast” clearance phase decay constant • β=“Slow” clearance phase decay constant • γ=“Slowest” clearance phase decay constant • t=Time post administration
(§4) The α, β, and γ phase decay constants can be converted to half-lives for their respective phases as: α Phase Half-life=0.69 (1/α) β Phase Half-life=0.69 (1/β) γ Phase Half-life=0.69 (1/γ)
(§5) In the case where the data are fit using the bi-exponential equation, the percentages of the total label cleared from in vivo circulation through the α and β phases are calculated as: % α Phase=[A/(A+B)]×100 % β Phase=[B/(A+B)]×100
(§6) In the case where the data are fit using the tri-exponential equation, the percentages of the total label cleared from in vivo circulation through the α and β phases are calculated as: % α Phase=[A/(A+B+C)]×100 % β Phase=[B/(A+B+C)]×100 % γ Phase=[C/(A+B+C)]×100

[2] = Allometric extrapolation of clearance to humans; format: in vivo; conditions: 70 Kg human
Source text: The data were plotted using a double 4-parameter exponential decay.

[3] = Plasma clearance in mice of 125I-labeled protein; conditions: for Clearance (%) alpha phase: fraction of label cleared through alpha phase; for Clearance (%) beta phase: fraction of label cleared through beta phase; for T1/2 alpha / T1/2 beta: plasma clearance, tail vein injection
Protocol: (§7) The protein to be tested is labeled with iodine (^125I) using the iodogen method (Pierce). The reaction tube is rinsed with reaction buffer (25 mM Tris, 0.4 M NaCl, pH 7.5). The tube is emptied and then replaced with 0.1 ml of reaction buffer and 12 μl of carrier free iodine-126, about 1.6 mCi. After six minutes, the activated iodine is transferred to a tube containing the protein to be tested. After nine minutes, the reaction is terminated with 25 μl of saturated tyrosine solution. The reaction can be purified on a 5 ml D-salt polyacrylamide 6000 column in Tris/NaCl. HSA can be used to minimize sticking to the gel.
(§8) A sufficient number of mice (about 36) are obtained. The weight of each animal is recorded. In the case of mice, the animals are injected in the tail vein with about 5 μg of the protein to be tested. Samples are recovered at each time point per animal, with four animals per time point, at approximately 0, 7, 15, 30, and 90 minutes, 4 hours, 8 hours, 16 hours, and 24 hours post injection. Samples (about 0.5 ml) are collected into anti-coagulant (0.02 ml EDTA). Cells are spun down and separated from plasma/serum. Samples can be analyzed by radiation counting and SEC peptide column on HPLC with inline radiation detection.
as §3, §4, §5, §6

[4] = mouse, in vivo
Protocol: as §7, §8, §3, §4, §5, §6

[5] = 14-day daily nebulization in 12 healthy volunteers; format: in vivo, human
Protocol: It is possible, for example, to deliver DX-890 to the lung by nebulization. DX-890 activity was detected in broncho-alveolar lavages of volunteer inhaling nebulized DX-890. 12 healthy volunteers received during 14 days a single daily dose of DX-890, by nebulization lasting 5 or 20 minutes, corresponding to estimated inhaled mass of 3.75 or 15 mg respectively. […] No clinical or biological abnormalities were observed.

[6] = Acute and subchronic 4-week studies of aerosolised DX-890 in cynomolgus monkeys; format: in vivo
[7] = Clinical studies in healthy human volunteers, inhalation at 8 increasing doses; format: in vivo; conditions: inhaled mass up to about 72 mg
[8] = Solubility upon dilution in Hepes buffer for the PEGylation reaction; format: physicochemical; conditions: stock ~10 mg/ml diluted 1:1 with 0.2M Hepes, pH 7.8-8.5
Protocol: • mPEG-SPA, MW 5,000 Da, NEKTAR Therapeutics, cat. no.: 2M4M0H01 (succinimidyl ester of methoxy-capped polyethylene glycol propionic acid) • DX-88 API, MW 7,054 Da, ˜10 mg/ml in PBS, pH 7.0 • DX-890 API, MW 6,231 Da, ˜10 mg/ml in 10 mM NaAc, pH 3.0 • DX-1000 API, MW 7,167 Da, ˜10 mg/ml in PBS, pH 7.0 • 0.2-0.3M Hepes, pH 7.8-8.5 • 1M Tris, pH8.0 • 1N HCl PEGylation Reaction I: • 1) Calculate the amount of PEG needed for reacting the Kunitz domain polypeptide at approximately 10:1 molar ratio of PEG:reactive group. For example, DX-890 has 5 total reactive groups, so a 50:1 molar ratio of PEG:DX-890 is used. Depending upon the Kunitz domain polypeptide and/or reaction conditions, a ratio of 25:1 to 50:1 is typically used. For example, for PEGylating 10 mg of DX-890 (MW 6,231 Da) at a 50:1 molar ratio of PEG:peptide, 401 mg of PEG (MW 5,000 Da) would be used. • 2) Just prior to reacting the Kunitz domain polypeptide with the PEG, dilute the required volume of Kunitz domain polypeptide stock 1:1 with 0.2M Hepes, pH 7.8-8.5 buffer. The peptide stock is typically ˜10.0 mg/ml. Therefore upon dilution, the concentration of the Kunitz domain polypeptide is ˜5.0 mg/ml in 0.1M Hepes, pH 7.8-8.5 buffer. […] Reaction times can be chosen to minimize precipitation. • 3) Immediately add the 1:1 diluted Kunitz domain polypeptide solution directly to the PEG powder and quickly dissolve the PEG by vortexing. Once completely dissolved, cap the tube, wrap in foil and allow to react while slowly rocking/tumbling for 2.5-3 hours at 2-8° C. to 25° C. • 4) Quench the reaction by adding 1/9th. volume of 1 M Tris, pH 8.0 for 30-60 minutes at 2-8° C. to 25° C. while slowly rocking/tumbling. • 5) Carefully and slowly adjust the pH of the quench reaction mixture to ˜ pH 7 with small additions of 1N HCl while mixing. • 6) The neutralized reaction can be stored at 2-8° C. or frozen at −20° C. to −80° C. until purification. The direct addition of the Kunitz domain polypeptide solution to PEG powder can help simplify the number of steps in the reaction process and reduce hydrolysis prior to reaction.

[9] = Resistance to oxidative and proteolytic inactivation; format: physicochemical
Source text: DX-890 is derived from the second Kunitz-type domain of inter-α-inhibitor protein (ITI-D2) and can be produced by fermentation in Pichia pastoris. It includes 56 amino acids, with a predicted MW of 6,237 Daltons.

[10] = rabbit, in vivo
Protocol: as §1, §2, §3, §4, §5, §6

[11] = target: T1, hNE of sputum from cystic fibrosis children (Homo sapiens, UniProt P08246); conditions: in vitro, ex vivo and in vivo pharmacological studies (Delacourt et al. 2002); cited from earlier work
T1 construct: hNE of sputum from cystic fibrosis children; from tissue; host or cells: sputum from cystic fibrosis children
T1 sequence (P08246 30-247 limits assumed): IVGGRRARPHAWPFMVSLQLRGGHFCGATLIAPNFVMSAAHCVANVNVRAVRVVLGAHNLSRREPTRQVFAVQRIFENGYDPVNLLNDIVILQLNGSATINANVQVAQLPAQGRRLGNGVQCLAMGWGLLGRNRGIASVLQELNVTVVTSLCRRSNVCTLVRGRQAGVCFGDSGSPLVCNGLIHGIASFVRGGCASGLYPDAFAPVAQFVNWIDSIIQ

[12] = allometric extrapolation from mice and rabbits
[13] = allometric extrapolation, restated in days
[14] = 12 healthy volunteers, 14 days single daily dose, nebulization, inhaled mass 3.75 or 15 mg

Substance: 5 × PEG5-DX-890: modified DX-890 with five attached 5 kDa PEG moieties (mPEG-SPA) (EACNLPIVRGPCIAFFPRWAFDAVKGKCVLFPYGGCQGNGNKFYSEKECREYCGVP; not fully specified; cysteine pairing not given here; also: five attached 5 kDa PEG moieties (mPEG-SPA))
- Clearance (%) alpha phase [1]: 28%
- Clearance (%) beta phase [1]: 34%
- Clearance (%) gamma phase [1]: 38%
- T1/2 alpha [1]: 2.8 min
- T1/2 beta [1]: 4.5 h
- T1/2 gamma [1]: 97.6 h
- Extrapolated long half life clearance phase [2, 12]: 330 h
- Extrapolated long half life clearance phase [2, 13]: about 14 days
- Clearance (%) alpha phase [3]: 33%
- Clearance (%) beta phase [3]: 67%
- T1/2 alpha [3]: 1.1 h
- T1/2 beta [3]: 20.2 h

Substance: 4 × PEG5-DX-1000: DX-1000 with four attached 5 kDa PEG moieties (4×5 kDa PEG/peptide) (MHSFCAFKAETGPCRARFDRWFFNIFTRQCEEFIYGGCEGNQNRFESLEECKKMCTRD; not fully specified; cysteine pairing not given here; also: four attached 5 kDa PEG moieties (4×5 kDa PEG/peptide))
- Clearance (%) alpha phase [1]: 34%
- Clearance (%) beta phase [1]: 32%
- Clearance (%) gamma phase [1]: 34%
- T1/2 alpha [1]: 1.9 min
- T1/2 beta [1]: 3 h
- T1/2 gamma [1]: 69.3 h
- Extrapolated long half life clearance phase [2, 12]: 210 h
- Extrapolated long half life clearance phase [2, 13]: about 9 days
- Clearance (%) alpha phase [3]: 38%
- Clearance (%) beta phase [3]: 62%
- T1/2 alpha [3]: 0.3 h
- T1/2 beta [3]: 12.5 h

Substance: DX-890: 56-amino-acid Kunitz domain (SEQ ID NO:23) derived from ITI-D2; inhibitor of human neutrophil elastase (EACNLPIVRGPCIAFFPRWAFDAVKGKCVLFPYGGCQGNGNKFYSEKECREYCGVP; Synthetically generated peptide)
- T1/2 alpha [4]: 1.3 min
- T1/2 beta [4]: 0.987 h
- Adverse events [5, 14]: no significant adverse event
- Tolerability [5, 14]: excellent
- DX-890 activity in broncho-alveolar lavages ([5]; volunteer inhaling nebulized DX-890): detected
- Clearance (%) alpha phase [1]: 83%
- Clearance (%) beta phase [1]: 17%
- Clinical or biological toxicity, histopathological lesions [6]: no signs of clinical or biological toxicity
- Safety of administration by inhalation [7]: safe
- Solubility upon dilution [8]: may precipitate over time
- Extrapolated long half life clearance phase [2, 12]: 8.4 h
- Resistance to oxidative and proteolytic inactivation [9]: resistant to oxidative and proteolytic inactivation
- T1/2 alpha [10]: 1.7 min
- T1/2 beta [10]: 3.4 h
- Clearance (%) alpha phase [3]: 79%
- Clearance (%) beta phase [3]: 21%
- Effect against lesions induced by hNE of sputum from cystic fibrosis children [11]: protective effect

Substance: DX-88: a kallikrein inhibitor, a Kunitz domain with three available lysines (SEQ ID NO:24) (EAMHSFCAFKADDGPCRAAHPRWFFNIFTRQCEEFIYGGCEGNQNRFESLEECKKMCTRD; Synthetically generated peptide)
- Solubility upon dilution [8]: relatively stable in terms of solubility upon dilution

Substance: DX-1000: a human plasmin inhibitor, a Kunitz domain with three available lysines (SEQ ID NO:25) (EAMHSFCAFKAETGPCRARFDRWFFNIFTRQCEEFIYGGCEGNQNRFESLEECKKMCTRD; Synthetically generated peptide)
- Clearance (%) alpha phase [1]: 85%
- Clearance (%) beta phase [1]: 15%
- T1/2 alpha [1]: 0.9 min
- T1/2 beta [1]: 1 h
- Solubility upon dilution [8]: relatively stable in terms of solubility upon dilution
- Extrapolated long half life clearance phase [2, 12]: 1.7 h
- Clearance (%) alpha phase [3]: 87%
- Clearance (%) beta phase [3]: 13%
- T1/2 alpha [3]: 0.025 h
- T1/2 beta [3]: 0.448 h
